Laboratory results reported in US20250163145A1 (SHIONOGI, published 2025).
Positions count from the first letter of the chain named. Numbers in names are those of the source. Where no end group is shown, it is not given here.

T1: epitope peptide Cys-CE3C long (also: biotin label, site not given here)
T1 peptide: CSVNVDKQPKYEYSL

B1: humanized antibody h15H11 (IGHV7-4-1 Q43R, G44S, R94P / IGKV7-3 Y36F, V78M) (antibody, human IgG4 S228P, kappa, V domains shown)
VH: QVQLVQSGSELKKPGASVKVSCKASGYTFTDYNMHWVRQAPGRSLEWMGRINPKNGVINSNEKFKDRFVFSLDTSVSTAYLQISSLKAEDTAVYYCAPSYYGGNTDAYWGQGTLVTVSS
VL: DIVLTQSPASLAVSPGQRATITCRASESVDNYGISFMNWFQQKPGQPPKLLIYAASSQGSGVPARFSGSGSGTDFTLTINPMEANDTANYYCQQSKEFPWTFGGGTKVEIKR
notes: hIgG4Pro/hIgK; also called h15H11-WT; h15H11-wt
B2: h15H11-25 (antibody, human IgG4 S228P, kappa, V domains shown)
VH: B1 VH with D31E, N59L
VL: B1 VL
notes: hIgG4Pro/hIgK
B3: h15H11-12 (antibody, human IgG4 S228P, kappa, V domains shown)
VH: B1 VH with D31E, N59L, N104D
VL: B1 VL
notes: hIgG4Pro/hIgK
B4: h15H11-28 (antibody, human IgG4 S228P, kappa, V domains shown)
VH: B1 VH with D31E, T105S
VL: B1 VL
notes: hIgG4Pro/hIgK
B5: h15H11-19 (antibody, human IgG4 S228P, kappa, V domains shown)
VH: B1 VH with D31E, N104D
VL: B1 VL with E27D, M37L
notes: hIgG4Pro/hIgK
B6: h15H11-33 (antibody, human IgG4 S228P, kappa, V domains shown)
VH: B1 VH with N59Q, T105S
VL: B1 VL with E27D, M37L
notes: hIgG4Pro/hIgK
B7: h15H11-5 (antibody, human IgG4 S228P, kappa, V domains shown)
VH: B1 VH with D31E, N59L, N104D
VL: B1 VL with E27D, M37L
notes: hIgG4Pro/hIgK
B8: h15H11-23 (antibody, human IgG4 S228P, kappa, V domains shown)
VH: B1 VH with D31E, T105S
VL: B1 VL with E27D, M37L
notes: hIgG4Pro/hIgK
B9: h15H11-21 (antibody, human IgG4 S228P, kappa, V domains shown)
VH: B1 VH with D31E, N59L
VL: B1 VL with E27D, M37L
notes: hIgG4Pro/hIgK
B10: h15H11-7 (antibody, human IgG4 S228P, kappa, V domains shown)
VH: B1 VH with D31E, N59L, T105D
VL: B1 VL with E27D, M37L
notes: hIgG4Pro/hIgK
B11: h15H11-40 (antibody, human IgG4 S228P, kappa, V domains shown)
VH: B1 VH with S60L
VL: B1 VL with A25V, E27D, M37L
notes: hIgG4Pro/hIgK
B12: h15H11-37 (antibody, human IgG4 S228P, kappa, V domains shown)
VH: B1 VH with T105Q
VL: B1 VL with A25V, E27D, M37L
notes: hIgG4Pro/hIgK
B13: h15H11-34 (antibody, human IgG4 S228P, kappa, V domains shown)
VH: B1 VH with D31E, Y101F, N104Q, T105S
VL: B1 VL with E27D, M37L
notes: hIgG4Pro/hIgK
B14: h15H11-22 (antibody, human IgG4 S228P, kappa, V domains shown)
VH: B1 VH with D31E, N104D
VL: B1 VL
notes: hIgG4Pro/hIgK
B15: h15H11-41 (antibody, human IgG4 S228P, kappa, V domains shown)
VH: B1 VH with Y101F, T105S
VL: B1 VL with E27D, M37L
notes: hIgG4Pro/hIgK
B16: h15H11-16 (antibody, human IgG4 S228P, kappa, V domains shown)
VH: B1 VH with D31E, T105D
VL: B1 VL
notes: hIgG4Pro/hIgK
B17: h15H11-11 (antibody, human IgG4 S228P, kappa, V domains shown)
VH: B1 VH with N59L, N104D
VL: B1 VL with E27D, M37L
notes: hIgG4Pro/hIgK
B18: h15H11-26 (antibody, human IgG4 S228P, kappa, V domains shown)
VH: B1 VH with N104D
VL: B1 VL with A25V, E27D, M37L
notes: hIgG4Pro/hIgK
B19: h15H11-30 (antibody, human IgG4 S228P, kappa, V domains shown)
VH: B1 VH with N104D
VL: B1 VL with E27D, M37L
notes: hIgG4Pro/hIgK
B20: h15H11-42 (antibody, human IgG4 S228P, kappa, V domains shown)
VH: B1 VH with N104K
VL: B1 VL
notes: hIgG4Pro/hIgK
B21: h15H11-18 (antibody, human IgG4 S228P, kappa, V domains shown)
VH: B1 VH with T105D
VL: B1 VL with A25V, E27D, M37L
notes: hIgG4Pro/hIgK
B22: h15H11-36 (antibody, human IgG4 S228P, kappa, V domains shown)
VH: B1 VH with S60L
VL: B1 VL with E27D, M37L
notes: hIgG4Pro/hIgK
B23: h15H11-31 (antibody, human IgG4 S228P, kappa, V domains shown)
VH: B1 VH with D31E, N59Q, T105S
VL: B1 VL
notes: hIgG4Pro/hIgK
B24: h15H11-4 (antibody, human IgG4 S228P, kappa, V domains shown)
VH: B1 VH with N59L, N104D, T105D
VL: B1 VL
notes: hIgG4Pro/hIgK
B25: h15H11-10 (antibody, human IgG4 S228P, kappa, V domains shown)
VH: B1 VH with D31E, N59L, T105D
VL: B1 VL
notes: hIgG4Pro/hIgK
B26: h15H11-38 (antibody, human IgG4 S228P, kappa, V domains shown)
VH: B1 VH with N59K
VL: B1 VL with A25V, E27D, M37L
notes: hIgG4Pro/hIgK
B27: h15H11-17 (antibody, human IgG4 S228P, kappa, V domains shown)
VH: B1 VH with T105D
VL: B1 VL with E27D, M37L
notes: hIgG4Pro/hIgK
B28: h15H11-32 (antibody, human IgG4 S228P, kappa, V domains shown)
VH: B1 VH with D31E, T105S
VL: B1 VL with A25V, E27D, M37L
notes: hIgG4Pro/hIgK
B29: h15H11-2 (antibody, human IgG4 S228P, kappa, V domains shown)
VH: B1 VH with N59L, N104D, T105D
VL: B1 VL with E27D, M37L
notes: hIgG4Pro/hIgK
B30: h15H11-39 (antibody, human IgG4 S228P, kappa, V domains shown)
VH: B1 VH with S60Y
VL: B1 VL with E27D, M37L
notes: hIgG4Pro/hIgK
B31: h15H11-24 (antibody, human IgG4 S228P, kappa, V domains shown)
VH: B1 VH with D31E, N59Q, T105S
VL: B1 VL with E27D, M37L
notes: hIgG4Pro/hIgK
B32: h15H11-9 (antibody, human IgG4 S228P, kappa, V domains shown)
VH: B1 VH with N59L, T105D
VL: B1 VL with E27D, M37L
notes: hIgG4Pro/hIgK
B33: h15H11-13 (antibody, human IgG4 S228P, kappa, V domains shown)
VH: B1 VH with D31E, T105D
VL: B1 VL with E27D, M37L
notes: hIgG4Pro/hIgK
B34: h15H11-1 (antibody, human IgG4 S228P, kappa, V domains shown)
VH: B1 VH with D31E, N59L, N104D, T105D
VL: B1 VL with E27D, M37L
notes: hIgG4Pro/hIgK
B35: h15H11-8 (antibody, human IgG4 S228P, kappa, V domains shown)
VH: B1 VH with N59L, T105D
VL: B1 VL
notes: hIgG4Pro/hIgK
B36: h15H11-35 (antibody, human IgG4 S228P, kappa, V domains shown)
VH: B1 VH with T105Q
VL: B1 VL with E27D, M37L
notes: hIgG4Pro/hIgK
B37: h15H11-27 (antibody, human IgG4 S228P, kappa, V domains shown)
VH: B1 VH with N59L
VL: B1 VL with A25V, E27D, M37L
notes: hIgG4Pro/hIgK
B38: h15H11-14 (antibody, human IgG4 S228P, kappa, V domains shown)
VH: B1 VH with N104D, T105D
VL: B1 VL
notes: hIgG4Pro/hIgK
B39: h15H11-43 (antibody, human IgG4 S228P, kappa, V domains shown)
VH: B1 VH
VL: B1 VL with I34F
notes: hIgG4Pro/hIgK
B40: h15H11-29 (antibody, human IgG4 S228P, kappa, V domains shown)
VH: B1 VH with N59L
VL: B1 VL
notes: hIgG4Pro/hIgK
B41: h15H11-3 (antibody, human IgG4 S228P, kappa, V domains shown)
VH: B1 VH with D31E, N59L, N104D, T105D
VL: B1 VL
notes: hIgG4Pro/hIgK
B42: h15H11-15 (antibody, human IgG4 S228P, kappa, V domains shown)
VH: B1 VH with N59L, N104D
VL: B1 VL
notes: hIgG4Pro/hIgK
B43: h15H11-20 (antibody, human IgG4 S228P, kappa, V domains shown)
VH: B1 VH with T105D
VL: B1 VL
notes: hIgG4Pro/hIgK
B44: h15H11-6 (antibody, human IgG4 S228P, kappa, V domains shown)
VH: B1 VH with N104D, T105D
VL: B1 VL with E27D, M37L
notes: hIgG4Pro/hIgK

Molecular target: T1, epitope peptide Cys-CE3C long
Assay: competitive ELISA, unlabeled vs biotin-labeled peptide, antibody on anti-human IgG plate
Procedure: A diluted solution of the obtained recombinant humanized antibody, a biotin-labeled immunogen peptide, and Streptavidin-HRP (manufactured by PIERCE) were added to an anti-human IgG antibody-immobilized plate, and reacted overnight at 4° C. […] Next, a recombinant human antibody at the dilution rate, a biotin-labeled immunogen peptide, and Streptavidin-HRP (manufactured by PIERCE) were added. At the same time, a dilution series of unlabeled immunogenic peptide was added and reacted overnight at 4° C. After washing twice with ELISA wash buffer, TMB-Substrate Chromogen (manufactured by Thermo Fisher Scientific) was added to develop color, the reaction was stopped with an equal amount of 0.5N sulfuric acid, and the absorbance at 450 nm was measured. The concentration of the unlabeled peptide which attenuated the signal of the biotin-labeled peptide by half was defined as the affinity (IC50).

IC50 [pM]	Binder
1440	B1
860	B2
620	B3
910	B4
740	B5
980	B6
520	B7
830	B8
800	B9
580	B10
1060	B11
1040	B12
990	B13
800	B14
1070	B15
680	B16
620	B17
880	B18
920	B19
830	B20
740	B21
1020	B22

IC50 [pM]	Binder
930	B23
510	B24
610	B25
1040	B26
700	B27
950	B28
480	B29
1050	B30
850	B31
610	B32
640	B33
470	B34
600	B35
1000	B36
910	B37
660	B38
830	B39
910	B40
500	B41
660	B42
770	B43
570	B44
